According to patent publication US7700107B2, “Synthetic immunogenic but non-amyloidogenic peptides homologous to amyloid β for induction of an immune response to amyloid β and amyloid deposits” (New York University, priority 2000, dated 2010):

Assays:
[1] = test system: human neuroblastoma cell line (SK—N—SH); assay: Neurotoxicity, MTT assay; format: cell-based; conditions: for Toxicity to SK—N—SH cells (MTT): 2 and 6 days, vs vehicle; for Aggregates visible under the microscope in culture wells: during the incubation period, 10-100 μM
Procedure: Briefly, cells were plated at 10,000 cells/100 μl culture medium per well in flat bottom, 96 well microtiter plates. The cells were allowed to attach to the plate overnight in an incubator (37° C., 5.0% CO2), and then 10 μl of freshly prepared peptide solution (in nanopure H2O) was added. […] Subsequent steps were as described in the assay protocol.
Data Analysis: The cell culture data was analyzed by one-way ANOVA, followed by a Dunnett's test for post hoc analysis (GraphPad Prism 3.0). An unbiased stereological image analysis system (Bioquant, R&M Biometrics Inc., Nashville, Tenn.) was used to determine the amyloid burden in 6E10 stained brain sections. The data for the amyloid burden and the levels of soluble Aβ within the brain were analyzed by a Student's t-test, two-tailed.
(§1) The experiments were performed as described in Example 1.
Data Analysis: The cell culture data was analyzed by one-way ANOVA, followed by a Newman Keuls' test for post hoc analysis (GraphPad Prism 3.0).

[2] = Thioflavin T fluorometric assay of amyloid fibril formation in vitro; format: physicochemical; conditions: incubation at 37° C., up to at least 15 days
Procedure: Studies of amyloid fibril formation in vitro can be performed using published protocols from the laboratory of the present inventors (Castaño et al., 1995; Wisniewski et al., 1991; Wisniewski et al., 1993 and Wisniewski et al., 1994). […] In vitro fibrillogenesis was evaluated by a fluorometric assay based on the fluorescence emission by thioflavine T, as previously described by the laboratory of the present inventors (Soto et al., 1998 and Jameson et al., 1998). Thioflavine T binds specifically to amyloid and this binding procedures a shift in its emission spectrum and a fluorescent enhancement proportional to the amount of amyloid formed (LeVine et al. 1993).
as §1

[3] = Solubility of freshly prepared peptide solution (in nanopure H2O); format: physicochemical; conditions: at 100 μM
[4] = Secondary structure by circular dichroism (CD); format: physicochemical
Procedure: Secondary structure (α-helix, β-sheet, and random coil) of the peptides was evaluated by circular dichroism (CD) as described previously (Soto et al., 1998 and Soto et al., 1996). Results are expressed as molar ellipticity in units of deg cm^2 dmol^−1, and the data was analyzed by the Lincomb and CCA algorithms (Perczel et al., 1992) to obtain the percentages of different types of secondary structure.
The experimental procedure for circular dichroism is performed according to Golabek et al., (1996) and Soto et al. (1996 and 1998) as follows: CD spectra of solutions containing synthetic peptides (1-5 μM in 300 μl of 10 mM sodium phosphate, pH 7.2) is recorded in a Jasco J-720 spectropolarimeter at 25° C. using a 0.1 cm path-length cell with double distilled, deionized water and TFE (spectroscopy grade) being used as solvents. Calibration of the instrument is performed with an aqueous solution of d-(+)-10-camphorsulfonic acid. Spectra is recorded at 1 nm intervals over the wavelength range 180 to 260 nm and buffer spectra obtained under identical conditions is subtracted.

Substance | Toxicity to SK—N—SH cells (MTT) ([1]; Example 1, FIGS. 2A and 2B) | Toxicity to SK—N—SH cells (MTT) ([1]; Example 2, FIGS. 6A and 6B) | Fibril formation (thioflavin T) ([2]; Example 2, FIG. 5) | Solubility [3] | alpha (secondary structure by CD) ([4]; Time 0 hr) | beta-sheet (secondary structure by CD) ([4]; Time 0 hr) | random (secondary structure by CD) ([4]; Time 0 hr) | alpha (secondary structure by CD) ([4]; Time 24 hr) | beta-sheet (secondary structure by CD) ([4]; Time 24 hr) | random (secondary structure by CD) ([4]; Time 24 hr) | alpha (secondary structure by CD) ([4]; Time 96 hr) | beta-sheet (secondary structure by CD) ([4]; Time 96 hr) | random (secondary structure by CD) ([4]; Time 96 hr) | Aggregates visible under the microscope in culture wells ([1]; Example 1) | Aggregates visible under the microscope in culture wells ([1]; Example 2) | Fibril formation (thioflavin T) ([2]; Example 1, FIG. 1)
Aβ1-40: amyloid β peptide, sequence 1-40; control peptide | toxic | toxic | gradually formed fibrils over time | – | – | – | – | – | – | – | – | – | – | – | – | –
Aβ1-30-NH2(DD18,19): modified Aβ1-30, amidated, Asp at positions 18 and 19 (SEQ ID NO:13) | – | – | did not form fibrils | – | – | – | – | – | – | – | – | – | – | – | – | –
Aβ1-42: amyloid β peptide, sequence 1-42; control peptide | toxic | toxic | – | only partially soluble | 9% | 36% | 55% | 9% | 40% | 51% | 5% | 55% | 40% | aggregates were visible | aggregates were visible | –
Aβ1-30-NH2: first thirty residues of Aβ1-42 (SEQ ID NO:1), amidated at the C-terminus; control peptide | – | – | gradually formed fibrils over time | – | 5% | 37% | 58% | 8% | 36% | 56% | 7% | 49% | 44% | – | – | gradually formed fibrils over time
Aβ1-30-NH2(EE18,19): modified Aβ1-30, amidated, Glu at positions 18 and 19 (SEQ ID NO:12) | – | – | did not form fibrils | – | – | – | – | – | – | – | – | – | – | – | – | –
